In paper PMC8273888 one finds Km, kcat and kcat/Km data, which are given here for two substances.

The subject of series [1] is [H][C@]12SCC(CS[C@H](Cc3ccccc3)C(=O)O)=C(C(=O)O)N1C(=O)[C@H]2NC(=O)Cc1ccccc1. In words: purified protein, by the assay type. The note with it: pH 7.2, 25.0 °C.
Series [2] concerns [H][C@]12SCC(CSC(C(=O)O)c3ccccc3)=C(C(=O)O)N1C(=O)[C@H]2NC(=O)Cc1ccccc1. The series can be described thus: purified protein, by the assay type. The conditions noted are these: pH 7.2, 25.0 °C.
[3] abbreviates: other: compound as substrate of NDM-1.
Setting [4] is: other: compound as substrate of VIM-2.

Regarding NDM-1 (Klebsiella pneumoniae), in series [1] (setting [3]), the Km was 21.2 ± 4 µM, the kcat was 17.4 s⁻¹ and the kcat/Km turned out to be 821000 M⁻¹ s⁻¹. Besides, in series [2] (setting [3]), the Km was 14.0 ± 2 µM, the kcat amounted to 13.1 s⁻¹ and the specificity constant (kcat/Km) came out at 936000 M⁻¹ s⁻¹.
As for VIM-2 (Escherichia coli), in series [1] (setting [4]), the Km worked out at 4.30 ± 1 µM, the kcat was found to be 2.35 s⁻¹ and the kcat/Km was 546000 M⁻¹ s⁻¹. Also, in series [2] (setting [4]), the Km amounted to 8.28 ± 2 µM, the kcat was 4.06 s⁻¹ and the kcat/Km came to 490000 M⁻¹ s⁻¹.

Broadly, the Km is the concentration of substrate that gives half-maximal velocity. For orientation: kcat means the number of substrate molecules converted per active site and unit of time at saturation. What is called kcat/Km is the turnover number divided by the Michaelis constant.
